Assay [1] has as its target GST-syntaxin 1A cytoplasmic domain fusion protein (Syn 1A11, amino acids 4-266), immobilized on glutathione agarose beads (Schistosoma japonicum; rat). The experiment in a line: GST-syntaxin 1A (wild type) on glutathione beads, soluble ligand, Western blot densitometry, FIG. 5B.
Assay [2] addresses GST-syntaxin 1A deletion mutant Syn 1A17 (amino acids 4-240) (Schistosoma japonicum; rat). Description: GST-syntaxin deletion mutant on glutathione beads, soluble ligand, Western blot densitometry; FIG. 4C row 5 from top, row label only in the figure (assigned by Table 1 order and paragraph 328). A general note: In western blotting, separated proteins are transferred to a membrane and probed.

For assay [3], the target named is GST-syntaxin 1A (Syn1A11) point mutant M4: V223A, Q226A (Schistosoma japonicum; rat). The experiment in a line: GST-syntaxin point mutant on glutathione beads, soluble ligand, Western blot densitometry, FIG. 5B.
The target of assay [4] is GST-syntaxin 1A (Syn1A11) point mutant 34 (Schistosoma japonicum; rat). Described as above.
Assay [5] deals with GST-syntaxin 1A (Syn1A11) point mutant M3: L212A, F216A (Schistosoma japonicum; rat). The description is as above.
Assay [6] addresses GST-syntaxin 1A deletion mutant Syn 1A6 (amino acids 4-190) (Schistosoma japonicum; rat). The experiment in a line: GST-syntaxin deletion mutant on glutathione beads, soluble ligand, Western blot densitometry; FIG. 4C row 3 from top, row label only in the figure (assigned by Table 1 order and paragraph 328).
Assay [7] deals with GST-syntaxin 1A deletion mutant Syn 1A17 (amino acids 4-240) (Schistosoma japonicum; rat). Description: 20S complex on GST-Syn 1A17 beads, ATP and Mg++, Western blot densitometry.
For assay [8], the target named is GST-syntaxin 1A deletion mutant Syn 1A4 (amino acids 8-76) (Schistosoma japonicum; rat). The experiment in a line: GST-syntaxin deletion mutant on glutathione beads, soluble ligand, Western blot densitometry; FIG. 4C row 1 from top, row label only in the figure (assigned by Table 1 order and paragraph 328).
Assay [9] has as its target GST-syntaxin 1A cytoplasmic domain fusion protein (Syn 1A11, amino acids 4-266), immobilized on glutathione agarose beads (Schistosoma japonicum; rat). Description: 20S complex assembly on GST-syntaxin beads with SNAP-25, VAMP, α-SNAP and NSF added together, ATPγS, 25° C., Western blot densitometry, FIG. 6A.
The target of assay [10] is GST-syntaxin 1A deletion mutant Syn 1A13 (amino acids 4-221) (Schistosoma japonicum; rat). The experiment in a line: GST-syntaxin deletion mutant on glutathione beads, soluble ligand, Western blot densitometry; FIG. 4C row 4 from top, row label only in the figure (assigned by Table 1 order and paragraph 328).
Assay [11] addresses GST-syntaxin 1A cytoplasmic domain fusion protein (Syn 1A11, amino acids 4-266), immobilized on glutathione agarose beads (Schistosoma japonicum; rat). Description: 20S complex assembly on GST-syntaxin beads with SNAP-25, VAMP, α-SNAP and NSF added together, ATP, 25° C., Western blot densitometry, FIG. 6A.
The target of assay [12] is GST-syntaxin 1A H3 domain construct Syn 1A16 (amino acids 191-266) (Schistosoma japonicum; rat). The experiment in a line: 20S complex on GST-Syn 1A16 beads, ATP and Mg++, Western blot densitometry.
Assay [13] addresses GST-syntaxin 1A cytoplasmic domain fusion protein (Syn 1A11, amino acids 4-266), immobilized on glutathione agarose beads (Schistosoma japonicum; rat). Description: GST-syntaxin deletion mutant on glutathione beads, soluble ligand, Western blot densitometry; FIG. 4C row 6 from top, row label only in the figure (assigned by Table 1 order and paragraph 328).
Assay [14] concerns the target GST-syntaxin 1A deletion mutant Syn 1A5 (amino acids 4-114) (Schistosoma japonicum; rat). Description: GST-syntaxin deletion mutant on glutathione beads, soluble ligand, Western blot densitometry; FIG. 4C row 2 from top, row label only in the figure (assigned by Table 1 order and paragraph 328).
Assay [15] has as its target GST-syntaxin 1A H3 domain construct Syn 1A16 (amino acids 191-266) (Schistosoma japonicum; rat). Description: 20S complex assembly on GST-syntaxin beads with all four proteins together, ATPγS, 18° C. overnight MgCl2, Western blot densitometry, FIG. 6B.
Assay [16] deals with GST-syntaxin 1A cytoplasmic domain fusion protein (Syn 1A11, amino acids 4-266), immobilized on glutathione agarose beads (Schistosoma japonicum; rat). Described as above.
In assay [17] the target is GST-syntaxin 1A deletion mutant Syn 1A13 (amino acids 4-221) (Schistosoma japonicum; rat). The assay is described as above.
For assay [18], the target named is GST-syntaxin 1A deletion mutant Syn 1A6 (amino acids 4-190) (Schistosoma japonicum; rat). Described as above.
For assay [19], the target named is GST-syntaxin 1A deletion mutant Syn 1A17 (amino acids 4-240) (Schistosoma japonicum; rat). The description is as above.
Assay [20] addresses GST-syntaxin 1A H3 domain construct Syn 1A16 (amino acids 191-266) (Schistosoma japonicum; rat). Description: 20S complex assembly on GST-syntaxin beads with all four proteins together, ATP, 18° C. overnight MgCl2, Western blot densitometry, FIG. 6B.
The target of assay [21] is GST-syntaxin 1A cytoplasmic domain fusion protein (Syn 1A11, amino acids 4-266), immobilized on glutathione agarose beads (Schistosoma japonicum; rat). The assay is described as above.
For assay [22], the target named is GST-syntaxin 1A deletion mutant Syn 1A13 (amino acids 4-221) (Schistosoma japonicum; rat). The assay is described as above.
In assay [23] the target is GST-syntaxin 1A deletion mutant Syn 1A6 (amino acids 4-190) (Schistosoma japonicum; rat). Described as above.
Assay [24] deals with GST-syntaxin 1A deletion mutant Syn 1A17 (amino acids 4-240) (Schistosoma japonicum; rat). The assay is described as above.

SNAP-25 (synaptosomal-associated protein of 25 kDa), soluble recombinant, sequence (chain): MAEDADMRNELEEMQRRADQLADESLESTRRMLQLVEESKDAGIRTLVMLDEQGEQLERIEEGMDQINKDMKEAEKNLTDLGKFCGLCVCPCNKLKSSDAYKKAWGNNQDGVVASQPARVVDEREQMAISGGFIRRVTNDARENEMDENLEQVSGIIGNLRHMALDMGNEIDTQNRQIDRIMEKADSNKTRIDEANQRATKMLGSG
His-tagged α-SNAP (soluble NSF attachment protein), soluble recombinant, sequence (P81125 whole entry): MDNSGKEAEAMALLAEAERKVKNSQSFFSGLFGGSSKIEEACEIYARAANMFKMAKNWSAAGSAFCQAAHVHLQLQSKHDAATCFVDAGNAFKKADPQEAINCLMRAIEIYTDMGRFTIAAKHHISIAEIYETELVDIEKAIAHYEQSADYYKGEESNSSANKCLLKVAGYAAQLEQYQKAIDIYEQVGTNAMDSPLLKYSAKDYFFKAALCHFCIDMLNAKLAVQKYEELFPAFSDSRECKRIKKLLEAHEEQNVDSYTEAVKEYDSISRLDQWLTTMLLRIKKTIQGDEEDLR

For “His-tagged α-SNAP (soluble NSF attachment protein), soluble recombinant (from UniProt P81125)”, the densitometry pixel value in assay [1] turned out to be 414 pixel value; in [2], 1660 pixel value; in assay [3], 43 pixel value; in assay [4] it was 10 pixel value; in assay [5] it was 23 pixel value; in assay [6], 0 pixel value. For the same substance, the densitometry pixel value came to 0 pixel value in [8]; 1490 pixel value in [9]; 0 pixel value in assay [10]; 132 pixel value in [11]; 1670 pixel value in [13]; 0 pixel value in [14]. In addition, the densitometry pixel value in assay [15] came out at 1420 pixel value; in assay [16], 1040 pixel value; in assay [17], 0 pixel value; in [18], 0 pixel value; in assay [19], 1070 pixel value; in assay [20], 1540 pixel value. Besides, the densitometry pixel value in assay [21] turned out to be 331 pixel value; in assay [22], 0 pixel value; in assay [23], 0 pixel value; in assay [24], 793 pixel value. Also, the percent dissociated in the presence of ATP and Mg++ in assay [7] came out at 25%; in assay [12] it was 0%.
Take “VAMP (vesicle-associated membrane protein; VAMP 2), soluble recombinant”: the densitometry pixel value in assay [1] stood at 2610 pixel value; in assay [2] it was 0 pixel value; in assay [3], 0 pixel value; in [4], 0 pixel value; in assay [5], 0 pixel value; in assay [6] it was 0 pixel value. Also, the densitometry pixel value in assay [8] is 0 pixel value; in assay [9], 528 pixel value; in assay [10], 0 pixel value; in assay [11], 32 pixel value; in assay [13], 286 pixel value; in [14], 0 pixel value. Further, the densitometry pixel value in assay [15] was 944 pixel value; in [16], 691 pixel value; in assay [17], 1310 pixel value; in assay [18], 0 pixel value; in assay [19] it was 812 pixel value; in assay [20] it was 951 pixel value. Further, the densitometry pixel value in assay [21] was 133 pixel value; in assay [22] it was 1560 pixel value; in assay [23], 0 pixel value; in assay [24] it was 903 pixel value. The percent dissociated in the presence of ATP and Mg++ in assay [7] and in [12] was 0% each time.
On to “SNAP-25 (synaptosomal-associated protein of 25 kDa), soluble recombinant”, for which the densitometry pixel value in assay [1] came to 555 pixel value; in assay [2], 623 pixel value; in assay [3], 754 pixel value; in assay [4], 712 pixel value; in [5], 866 pixel value; in [6] it was 9 pixel value. The densitometry pixel value in [8] came out at 19 pixel value; in [9] it was 839 pixel value; in assay [10], 417 pixel value; in [11] it was 768 pixel value; in assay [13], 797 pixel value; in assay [14] it was 19 pixel value. Besides, the densitometry pixel value in assay [15] came to 504 pixel value; in assay [16], 85 pixel value; in assay [17] it was 1340 pixel value; in assay [18], 0 pixel value; in assay [19], 415 pixel value; in assay [20], 484 pixel value. For the same substance, the densitometry pixel value in assay [21] came out at 75 pixel value; in assay [22], 1310 pixel value; in assay [23] it was 0 pixel value; in assay [24], 546 pixel value. The figures for the percent dissociated in the presence of ATP and Mg++ in [7] and in assay [12] were 0% and 5%, respectively.

The values are drawn from patent US5693476.
